Source: US20130344098A1

Biological target: anti-Fel d1 mAB 6F9
Test: sandwich ELISA: mAB 6F9 coated, Fel d1 protein in doubling dilutions 80-0.16 ng/ml, detected with biotinylated mAB 3E4; Fel d1 (ng/ml) at OD50%

Substance: natural Fel d1 (from UniProt P30440 18-109)
- EC50: 7.2 ng/mL
